Results reported in patent US20120004133A1.

Target: Ang II type 1 receptor on rat vascular smooth muscle cells (rat) (UniProt P25095)
Experiment: cell-based or functional assay

Chain of UniProt P25095 (P25095 whole entry): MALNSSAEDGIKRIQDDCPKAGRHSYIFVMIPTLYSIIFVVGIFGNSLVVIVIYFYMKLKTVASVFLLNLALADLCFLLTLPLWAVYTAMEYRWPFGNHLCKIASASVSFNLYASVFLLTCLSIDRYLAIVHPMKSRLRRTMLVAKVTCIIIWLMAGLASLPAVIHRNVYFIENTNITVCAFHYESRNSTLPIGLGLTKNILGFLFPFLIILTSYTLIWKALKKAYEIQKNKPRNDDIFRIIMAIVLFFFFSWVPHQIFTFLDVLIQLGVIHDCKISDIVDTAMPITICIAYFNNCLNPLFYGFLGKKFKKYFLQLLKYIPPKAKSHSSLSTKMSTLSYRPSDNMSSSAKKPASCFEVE

An MFG-E8 protein level in old VSMC (Western blot) of 40% was found for “[Sar1, Gly8]-Ang II acetate hydrate (peptide)” in this work.
